System: rat model of pulmonary hypertension induced by monocrotaline
Assay: rat model of pulmonary hypertension induced by monocrotaline
Format: in vivo, rat (Sprague Dawley)
Method: To further evaluate the effect of anti-Activin A antibodies in pulmonary arterial hypertension, a rat model of pulmonary hypertension induced by monocrotaline was used.
Six to seven week old Sprague Dawley rats were used. Rats were separated into treatment groups such that body weights were similar among different groups. Rats were subcutaneously administered either 40 mg/kg of monocrotaline or 5 mL/kg of saline at day 0. At 14 days post injection, saline-injected rats were orally dosed with PEG 400 (at 50:50 v/v, Affymetrix Inc., #19957) at 5 mL/kg daily for two weeks, and monocrotaline-injected rats were separated into 5 groups with a group (n=9) orally dosed with PEG 400 at 5 mL/kg daily for two weeks, another group (n=12) orally administered macintentan at 30 mg/kg daily for two weeks, and three groups that were both orally dosed with PEG 400 at 5 mL/kg daily for two weeks and subcutaneously treated with either anti-Activin A antibodies, H4H10430P (n=9), H4H10446P2 (n=11), or an isotype control antibody (n=10) at 40 mg/kg twice a week for two weeks.
At day 27, pulmonary artery size and right ventricular function and dimensions of the rats were assessed using a high frequency ultrasound system (Vevo 2100, VisualSonics). For the assessment, rats were anesthetized (with 1.5% isoflurane at a rate of 1.0 cc/mL of medical grade air) and their temperature was monitored with a rectal temperature probe and held at approximately 37° C. with a heated platform (Vevo 2100, Visualsonics) and a warming lamp. Both brightness-mode (B-mode) and motion-mode (M-mode) imaging were used. B-mode imaging of the rat heart in cross-section was used to determine pulmonary artery cross-sectional area (PA CSA) at the level of the pulmonary valve. […] was used to determine the pulsed wave velocity time integral (VTI), which is derived from the area under the curve of representative Doppler tracings of blood flow through the pulmonary artery. Right ventricular stroke volume (RV SV) was calculated from the product of PA CSA and VTI. Right ventricular cardiac output (RV CO) was calculated from the product of SV and heart rate (HR). M-mode imaging was used to determine right ventricular free wall (RVFW) thickness during diastole and systole. […]
Right ventricular pressure was subsequently assessed for all treatment groups. […] The catheter was connected to pressure/volume instrument (MPVS-300, Millar Instruments, Inc.) that measured heart rate as well as both diastolic and systolic right ventricular pressures. […] Readings were quantified from a 60 second interval of the pressure tracing (following a 2 minute period of recording to allow for pressure stabilization). The parameters analyzed were RV diastolic and systolic pressures, heart rate and ventricular contractile function. […]

[1] = monocrotaline 40 mg/kg SC day 0, antibodies 40 mg/kg SC 2x/wk, macitentan 30 mg/kg PO daily from day 14 for two weeks, ultrasound day 27

B1: H4H10430P: fully human anti-Activin A antibody, human IgG4 Fc; HCVR/LCVR SEQ ID NOs 66/74 (antibody, V domains shown)
VH: EVQLVESGGGLVQPGRSLRLSCKASGFAFDDFAMHWVRQAPGKGLEWVSGIVWNSGDIGYADSVKGRFTISRDNAKNSLYLQLNSLRTEDTALYFCVKDMVRGLMGFNYYGMDVWGQGTTVTVSS
VL: EIVLTQSPATLSLSPGERATLSCRASQTISTYLVWYRQRPGQAPSLLIYDASNRATDIPARFSGSGSGTDFTLTISSLEPEDFAVYYCQQRSNWPITFGQGTRLEIK
For B1, the “PA CSA (Ave ± SEM)” value [1] was 9.439 ± 0.516%% mm^2, the “Right Ventricular cardiac output (Ave ± SEM)” value [1] was 130.0 ± 12.5 mL/min and the “Stroke Volume (Ave ± SEM), right ventricular” value [1] was 362.8 ± 32.6 µL. For the same molecule, the “effect on PA CSA (in words)” value (monocrotaline-injected rats, FIG. 3A) was “restored PA CSA to values measured for saline-injected PEG 400 dosed rats”.
